Data from patent publication US20090042785A1.

How the values were obtained:
[1] = molecular target: human CTLA-4-Fc (Chimerigen) (human) (UniProt P16410); experiment: competition FACS: HuCTLA4-Ig 5 ug/ml (as printed on the axis) pre-incubated with the antagonist, then staining of P815 cells transfected with human B7.2; blocked ligand B7.2
[2] = molecular target: human CTLA-4-Fc (Chimerigen) (human) (UniProt P16410); experiment: FACS competition: inhibition of 2.5 nM hCTLA-4 Fc binding to Raji cells (B7.1, B7.2)
[3] = molecular target: human CTLA-4 on the cell surface (transfected CHO and A431 cells; CD152-expressing cells of human tonsil) (human) (UniProt P16410); experiment: indirect immunoperoxidase staining of cryosections; CD152-expressing cells in human tonsil (positive control tissue), source HT662; 5 µg/mL; scale ± to 4+ (4+ = intense)
[4] = molecular target: human CTLA-4-Fc (Chimerigen) (human) (UniProt P16410); experiment: competition FACS: 2.5 nM human CTLA-4 Fc pre-incubated with the antagonist, then staining of Raji cells; % inhibition of CTLA-4 Fc binding; blocked ligands B7.1 and B7.2
[5] = molecular target: human CTLA-4 on the cell surface (transfected CHO and A431 cells; CD152-expressing cells of human tonsil) (human) (UniProt P16410); experiment: indirect immunoperoxidase staining of cryosections; tonsil HT664, mononuclear cells, follicular>>interfollicular (membrane); 5 µg/mL [Fig.20 continued, no label on the sheet]
[6] = molecular target: human CTLA-4 on the cell surface (transfected CHO and A431 cells; CD152-expressing cells of human tonsil) (human) (UniProt P16410); experiment: indirect immunoperoxidase staining of cryosections; CD152-expressing cells in human tonsil (positive control tissue), source HT343; 5 µg/mL; scale ± to 4+ (4+ = intense)
[7] = molecular target: human CTLA-4 on the cell surface (transfected CHO and A431 cells; CD152-expressing cells of human tonsil) (human) (UniProt P16410); experiment: indirect immunoperoxidase staining of cryosections; spleen HT337, mononuclear cells, white pulp (membrane, frequent); 5 µg/mL [Fig.20 continued, no label on the sheet]
[8] = molecular target: human CTLA-4 on the cell surface (transfected CHO and A431 cells; CD152-expressing cells of human tonsil) (human) (UniProt P16410); experiment: indirect immunoperoxidase staining of cryosections; kidney HT268, mononuclear cells, interstitial, inflammatory (membrane, rare); 5 µg/mL [Fig.20 continued, no label on the sheet]
[9] = molecular target: mouse CTLA-4 Fc (Chimerigen) (mouse) (UniProt P09793); experiment: FACS competition: inhibition of 2.5 nM mCTLA-4 Fc binding to Raji cells (B7.1, B7.2)

anti-human CTLA-4 monoclonal antibody 14D3 (eBioscience)
IC50 (read off the curve) [1]: 50 nM | IC50 [2]: 1.9 nM

anti-human CTLA-4 monoclonal antibody BNI3 (Becton Dickinson)
IC50 [2]: 2.1 nM | staining intensity grade [3]: 4 + | IC50 (read off the curve) [4]: 2 nM | staining intensity grade [5]: 4 + | staining intensity grade [6]: 4 + | staining intensity grade [7]: 4 + | staining intensity grade [8]: 4 +

anti-mouse CTLA-4 monoclonal antibody 4F10 (hybridoma UC10-4F10-11, ATCC #HB-304)
IC50 [9]: 4.1 nM
